Results: paper doi:10.1101/2020.02.24.961524

Molecular target: N-terminally SNAP-tagged GLP-1R (glucagon-like peptide-1 receptor) (UniProt P43220)
Test: FRET or BRET

Sequence of UniProt P43220 (P43220 24-463): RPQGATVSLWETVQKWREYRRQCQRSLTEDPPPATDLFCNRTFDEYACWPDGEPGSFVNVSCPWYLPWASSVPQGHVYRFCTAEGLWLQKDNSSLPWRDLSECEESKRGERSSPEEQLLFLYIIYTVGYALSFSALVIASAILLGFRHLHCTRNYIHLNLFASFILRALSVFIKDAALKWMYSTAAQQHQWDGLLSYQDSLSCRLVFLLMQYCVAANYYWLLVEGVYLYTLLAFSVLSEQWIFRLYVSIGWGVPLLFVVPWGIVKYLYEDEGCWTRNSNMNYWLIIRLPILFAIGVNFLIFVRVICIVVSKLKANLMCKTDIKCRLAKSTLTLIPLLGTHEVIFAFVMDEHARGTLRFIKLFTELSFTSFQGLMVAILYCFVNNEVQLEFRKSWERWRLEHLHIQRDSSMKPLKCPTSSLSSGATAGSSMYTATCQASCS

## exendin-4 (from UniProt P26349 48-87) (peptide)
  fold affinity relative to GLP-1: 5 fold
